{
  "source": "paper PMC8239185",
  "origin": "cited, not measured here",
  "key": {"[1]": {"target": "Glu286 (UniProt position 286, FFGHPEVYIIV)", "experiment": "kinetics", "settings": "enzyme during turnover"}, "[2]": {"target": "Glu212 (UniProt position 213, RTPDHEDTFFR)", "settings": "ground state of the reaction centre (quinones oxidised)"}},
  "data": [
    {"substance": "Cytochrome c oxidase (aa3, A-type), subunit I (Rhodobacter sphaeroides (Cereibacter sphaeroides))", "values": [
      {"measurement": "pKa", "setting": "[1]", "value": "≈10"}
    ]},
    {"substance": "Photosynthetic reaction centre (bRC), L subunit (Rhodobacter sphaeroides (Cereibacter sphaeroides))", "values": [
      {"measurement": "pKa", "setting": "[2]", "value": "≈10"}
    ]}
  ]
}
